Broadly, the Kd is a measure of binding affinity in units of concentration. A higher Kd goes with a looser complex.

Drawing on publication PMC8537613 (2021), this text covers Kd for one molecule.

The target of this assay is m102.4. Put plainly: ELISA.

B1: NiV sG (domain or fragment)
chain: QNYTRSTDNQAVIKDALQGIQQQIKGLADKIGTEIGPKVSLIDTSSTITIPANIGLLGSKISQSTASINENVNEKCKFTLPPLKIHECNISCPNPLPFREYRPQTEGVSNLVGLPNNICLQKTSNQILKPKLISYTLPVVGQSGTCITDPLLAMDEGYFAYSHLERIGSCSRGVSKQRIIGVGEVLDRGDEVPSLFMTNVWTPPNPNTVYHCSAVYNNEFYYVLCAVSTVGDPILNSTYWSGSLMMTRLAVKPKSNGGGYNQHQLALRSIEKGRYDKVMPYGPSGIKQGDTLYFPAVGFLVRTEFKYNDSNCPITKCQYSKPENCRLSMGIRPNSHYILRSGLLKYNLSDGENPKVVFIEISDQRLSIGSPSKIYDSLGQPVFYQASFSWDTMIKFGDVLTVNPLVVNWRNNTVISRPGQSQCPRFNTCPEICWEGVYNDAFLIDRINWISAGVFLDSNQTAENPVFTVFKDNEILYRAQLASEDTNAQKTITNCFLLKNKIWCISLVEIYDTGDNVIRPKLFAVKIPEQCT
In turn, B1 came in with a Kd of 0.15 nM.
